Article PMC3319458 (2012)

Molecular target: Nfs1/Isd11/Isu2 (SDU) complex (Homo sapiens, UniProt Q9Y697)
Assay: cysteine desulfurase activity titration

Kd: 0.22 µM
B1: Frataxin 82-210 (protein)
chain: GTLGHPGSLDETTYERLAEETLDSLAEFFEDLADKPYTFEDYDVSFGSGVLTVKLGGDLGTYVINKQTPNKQIWLSSPSSGPKRYDWTGKNWVYSHDGVSLHELLAAELTKALKTKLDLSSLAYSGKDA
